From PMC9976877, “The Ku complex promotes DNA end-bridging and this function is antagonized by Tel1/ATM kinase”
Numbering of substitutions follows the chain as printed.

How the values were obtained:
[1] = molecular target: T1, Ku70-Strep (wild type);Ku80-6xHis (Saccharomyces cerevisiae;Saccharomyces …, UniProt P32807;Q04437 1-602;1-629, |); experiment: EMSA; 13 nM DNA; 0-104 nM Ku; shift detectable at 4-fold ratio of Ku to DNA; 2 mM MgCl2; EMSA: 25 mM Tris/HCl pH 7.5, 100 mM NaCl, 2 mM MgCl2, 7% glycerol, 1 mM DTT, 30 min on ice; 6% native gel at 4 °C; conditions: protein: recombinant;recombinant; tags: Strep;6xHis; copies: 1;1; label: 32P; blunt
T1 sequence 1: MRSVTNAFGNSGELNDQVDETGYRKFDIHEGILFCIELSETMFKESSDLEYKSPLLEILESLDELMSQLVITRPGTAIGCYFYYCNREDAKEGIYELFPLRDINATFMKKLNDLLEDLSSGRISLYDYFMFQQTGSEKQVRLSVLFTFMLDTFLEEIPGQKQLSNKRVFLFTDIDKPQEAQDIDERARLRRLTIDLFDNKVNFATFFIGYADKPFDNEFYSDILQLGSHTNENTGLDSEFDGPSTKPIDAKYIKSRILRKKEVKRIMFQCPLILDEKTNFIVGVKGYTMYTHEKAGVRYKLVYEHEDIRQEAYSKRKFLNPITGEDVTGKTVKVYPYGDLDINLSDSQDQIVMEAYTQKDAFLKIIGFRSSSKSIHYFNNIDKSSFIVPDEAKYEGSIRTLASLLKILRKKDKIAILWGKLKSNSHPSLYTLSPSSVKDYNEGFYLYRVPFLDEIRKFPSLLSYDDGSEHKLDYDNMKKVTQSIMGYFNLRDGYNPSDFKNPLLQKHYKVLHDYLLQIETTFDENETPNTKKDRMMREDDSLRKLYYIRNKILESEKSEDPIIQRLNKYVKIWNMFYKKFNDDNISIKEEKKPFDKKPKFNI
T1 sequence 2: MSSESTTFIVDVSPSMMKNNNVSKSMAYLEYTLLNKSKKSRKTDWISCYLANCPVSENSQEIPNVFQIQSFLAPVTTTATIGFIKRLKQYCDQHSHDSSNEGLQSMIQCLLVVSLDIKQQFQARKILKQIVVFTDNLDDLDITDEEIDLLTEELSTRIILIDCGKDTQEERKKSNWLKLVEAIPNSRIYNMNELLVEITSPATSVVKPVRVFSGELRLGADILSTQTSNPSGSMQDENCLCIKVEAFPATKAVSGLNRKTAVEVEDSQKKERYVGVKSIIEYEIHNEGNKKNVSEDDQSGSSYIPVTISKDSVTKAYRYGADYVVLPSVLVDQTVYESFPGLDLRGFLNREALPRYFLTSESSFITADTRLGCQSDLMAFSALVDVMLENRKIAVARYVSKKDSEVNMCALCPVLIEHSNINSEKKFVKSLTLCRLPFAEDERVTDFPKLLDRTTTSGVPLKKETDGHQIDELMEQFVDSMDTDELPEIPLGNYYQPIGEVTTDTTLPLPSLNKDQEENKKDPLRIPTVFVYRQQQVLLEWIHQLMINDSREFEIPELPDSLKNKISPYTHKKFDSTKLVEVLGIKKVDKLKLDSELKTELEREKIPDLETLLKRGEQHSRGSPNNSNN

[2] = molecular target: T2, Ku70 C85Y-Strep;Ku80-6xHis (Saccharomyces cerevisiae;Saccharomyces …, UniProt P32807;Q04437 1-602;1-629, C85Y|); experiment: EMSA; 13 nM DNA; 0-104 nM Ku; shift detectable at 2-fold ratio of Ku to DNA (stronger than wild type); 2 mM MgCl2; EMSA: 25 mM Tris/HCl pH 7.5, 100 mM NaCl, 2 mM MgCl2, 7% glycerol, 1 mM DTT, 30 min on ice; 6% native gel at 4 °C; conditions: protein: recombinant;recombinant; tags: Strep;6xHis; copies: 1;1; label: 32P; blunt
T2 sequence 1: T1 sequence 1 with C85Y
T2 sequence 2: T1 sequence 2

B1: 21 bp blunt-ended dsDNA (dsDNA)
DNA 1: CCGCACACCCACACACCAGTG
DNA 2: CACTGGTGTGTGGGTGTGCGG
B1: binds [1]; binds [2].
